Measurements: the Human Domainome abundance scans (Beltran et al. 2025)
± gives the uncertainty stated by the source.

B1: POU domain, class 3, transcription factor 4, residues 280 to 335; numbered along this chain, P49335 (parent)
chain: KKRTSIEVSVKGVLETHFLKCPKPAAQEISSLADSLQLEKEVVRVWFCNRRQKEKR

Variants of: B1
Test: abundance fitness (aPCA) (normalised: wild type 0, dead -1); higher = more abundant; growth selection in yeast, the domain comes from the species named
Conditions: Homo sapiens

KKRTSIEVSVKGVLETHFLKCPKPAAQEISSLADSLQLAKEVVRVWFCNRRQKEKR [E39A] and KKRTSIEVSVKGVLETHFLKCPKPAAQEISSWADSLQLEKEVVRVWFCNRRQKEKR [L32W] are within error of each other in abundance fitness: -0.515 ± 0.21 for the first, -0.614 ± 0.28 for the second.

KKRTSIEVSVKGVLETHFLKCPKPAAQEISSVADSLQLEKEVVRVWFCNRRQKEKR [L32V] and KKRTSIEVSVKGVLETHFLKCPKPAAQEISSSADSLQLEKEVVRVWFCNRRQKEKR [L32S] are within error of each other in abundance fitness: -0.625 ± 0.2 for the first, -0.732 ± 0.24 for the second.

KKRTSIEVSVKGVLETHFLKCPKPAAQEISSFADSLQLEKEVVRVWFCNRRQKEKR [L32F] and KKRTSIEVSVKGVLETHFLKCPKPAAQEISSNADSLQLEKEVVRVWFCNRRQKEKR [L32N] are within error of each other in abundance fitness: -0.877 ± 0.38 for the first, -0.785 ± 0.32 for the second.

KKRTSIEVSVKGVLETHFLKCPKPAAQEISSGADSLQLEKEVVRVWFCNRRQKEKR [L32G] and KKRTSIEVSVKGVLETHFLKCPKPAAQEISSQADSLQLEKEVVRVWFCNRRQKEKR [L32Q] are within error of each other in abundance fitness: -0.784 ± 0.22 for the first, -0.916 ± 0.35 for the second.

KKRTSIEVSVKGVLETHFLKCPKPAAQEISSTADSLQLEKEVVRVWFCNRRQKEKR [L32T] and KKRTSIEVSVKGVLETHFLKCPKPAAQEISSPADSLQLEKEVVRVWFCNRRQKEKR [L32P] are within error of each other in abundance fitness: -0.939 ± 0.46 for the first, -0.176 ± 0.34 for the second.

First: KKRTSIEVSVKGVLETHFLKCPKPAAQEISSIADSLQLEKEVVRVWFCNRRQKEKR [L32I]
Second: KKRTSIEVSVKGVLETHFLKCPKPAAQEISSRADSLQLEKEVVRVWFCNRRQKEKR [L32R]
The abundance fitness of the first is higher: -0.041 ± 0.48 for the first, -0.847 ± 0.2 for the second.

KKRTSIEVSVKGVLETHFLKCPKPAAQEISSMADSLQLEKEVVRVWFCNRRQKEKR [L32M] and KKRTSIEVSVKGVLETHFLKCPKPAAQEISSHADSLQLEKEVVRVWFCNRRQKEKR [L32H] are within error of each other in abundance fitness: -0.425 ± 0.27 for the first, -0.86 ± 0.35 for the second.

KKRTSIEVSVKGVLETHFLKCPKPAAQEISSLADSGQLEKEVVRVWFCNRRQKEKR [L36G] and KKRTSIEVSVKGVLETHFLKCPKPAAQEISSLADSEQLEKEVVRVWFCNRRQKEKR [L36E] are within error of each other in abundance fitness: -0.703 ± 0.33 for the first, -0.781 ± 0.39 for the second.

KKRTSIEVSVKGVLETHFLKCPKPAAQEISSLADSLQGEKEVVRVWFCNRRQKEKR [L38G] and KKRTSIEVSVKGVLETHFLKCPKPAAQEISSLADSLQKEKEVVRVWFCNRRQKEKR [L38K] are within error of each other in abundance fitness: -0.679 ± 0.14 for the first, -0.531 ± 0.29 for the second.

First: KKRTSIEVSVKGVLETHFLKCPKPAAQEISSLADSLQSEKEVVRVWFCNRRQKEKR [L38S]
Second: KKRTSIEVSVKGVLETHFLKCPKPAAQEISSLADSLQVEKEVVRVWFCNRRQKEKR [L38V]
The abundance fitness of the first is lower: -0.815 ± 0.18 for the first, -0.269 ± 0.15 for the second.

KKRTSIEVSVKGVLETHFLKCPKPAAQEISSLADSLQCEKEVVRVWFCNRRQKEKR [L38C] and KKRTSIEVSVKGVLETHFLKCPKPAAQEISSLADSLQYEKEVVRVWFCNRRQKEKR [L38Y] are within error of each other in abundance fitness: -0.656 ± 0.22 for the first, -0.483 ± 0.33 for the second.

Compared with KKRTSIEVSVKGVLETHFLKCPKPAAQEISSLADSLQIEKEVVRVWFCNRRQKEKR [L38I], KKRTSIEVSVKGVLETHFLKCPKPAAQEISSLADSLQQEKEVVRVWFCNRRQKEKR [L38Q] is lower in abundance fitness: 0.048 ± 0.26 for the first, -0.89 ± 0.26 for the second.

First: KKRTSIEVSVKGVLETHFLKCPKPAAQEISSLADSLQMEKEVVRVWFCNRRQKEKR [L38M]
Second: KKRTSIEVSVKGVLETHFLKCPKPAAQEISSLADSLQWEKEVVRVWFCNRRQKEKR [L38W]
The abundance fitness of the first is higher: -0.148 ± 0.16 for the first, -0.884 ± 0.21 for the second.

KKRTSIEVSVKGVLETHFLKCPKPAAQEISSLADSLQPEKEVVRVWFCNRRQKEKR [L38P] and KKRTSIEVSVKGVLETHFLKCPKPAAQEISSLADSLQAEKEVVRVWFCNRRQKEKR [L38A] are within error of each other in abundance fitness: -0.932 ± 0.29 for the first, -0.744 ± 0.23 for the second.

KKRTSIEVSVKGVLETHFLKCPKPAAQEISSLADSLQTEKEVVRVWFCNRRQKEKR [L38T] and KKRTSIEVSVKGVLETHFLKCPKPAAQEISSLADSLQEEKEVVRVWFCNRRQKEKR [L38E] are within error of each other in abundance fitness: -0.607 ± 0.21 for the first, -0.729 ± 0.29 for the second.

KKRTSIEVSVKGVLETHFLKCPKPAAQEISSLADWLQLEKEVVRVWFCNRRQKEKR [S35W] and KKRTSIEVSVKGVLETHFLKCPKPAAQEISSLADILQLEKEVVRVWFCNRRQKEKR [S35I] are within error of each other in abundance fitness: -0.707 ± 0.2 for the first, -0.373 ± 0.15 for the second.

KKRTSIEVSVKGVLETHFLKCPKPAAQEISSLADALQLEKEVVRVWFCNRRQKEKR [S35A] and KKRTSIEVSVKGVLETHFLKCPKPAAQEISSLADTLQLEKEVVRVWFCNRRQKEKR [S35T] are within error of each other in abundance fitness: 0.071 ± 0.14 for the first, -0.01 ± 0.13 for the second.

Going from KKRTSIEVSVKGVLETHFLKCPKPAAQEISSLADYLQLEKEVVRVWFCNRRQKEKR [S35Y] to KKRTSIEVSVKGVLETHFLKCPKPAAQEISSLADHLQLEKEVVRVWFCNRRQKEKR [S35H], the abundance fitness rises from -0.364 ± 0.17 to 0.345 ± 0.21.

Going from KKRTSIEVSVKGVLETHFLKCPKPAAQEISSLADVLQLEKEVVRVWFCNRRQKEKR [S35V] to KKRTSIEVSVKGVLETHFLKCPKPAAQEISSLADKLQLEKEVVRVWFCNRRQKEKR [S35K], the abundance fitness rises from -0.456 ± 0.13 to 0.257 ± 0.15.

KKRTSIEVSVKGVLETHFLKCPKPAAQEISSLADMLQLEKEVVRVWFCNRRQKEKR [S35M] and KKRTSIEVSVKGVLETHFLKCPKPAAQEISSLADRLQLEKEVVRVWFCNRRQKEKR [S35R] are within error of each other in abundance fitness: 0.127 ± 0.17 for the first, 0.152 ± 0.11 for the second.

Going from KKRTSIEVSVKGVLETHFLKCPKPAAQEISSLADDLQLEKEVVRVWFCNRRQKEKR [S35D] to KKRTSIEVSVKGVLETHFLKCPKPAAQEISSLADGLQLEKEVVRVWFCNRRQKEKR [S35G], the abundance fitness falls from 0.031 ± 0.25 to -0.638 ± 0.15.

KKRTSIEVSVKGVLETHFLKCPKPAAQEISSLADFLQLEKEVVRVWFCNRRQKEKR [S35F] and KKRTSIEVSVKGVLETHFLKCPKPAAQEISSLADLLQLEKEVVRVWFCNRRQKEKR [S35L] are within error of each other in abundance fitness: -0.249 ± 0.14 for the first, -0.122 ± 0.11 for the second.

First: KKRTSIEVSVKGVLETHFLKCPKPAAQEISSLADELQLEKEVVRVWFCNRRQKEKR [S35E]
Second: KKRTSIEVSVKGVLETHFLKCPKPAAQEISSLADCLQLEKEVVRVWFCNRRQKEKR [S35C]
The abundance fitness of the first is higher: 0.115 ± 0.17 for the first, -0.383 ± 0.17 for the second.

With KKRTSIEVSVKGVLETHFLKCPKPAAQEISSLADNLQLEKEVVRVWFCNRRQKEKR [S35N] the abundance fitness was -0.45 ± 0.24.
